Consider 23 molecules from publication PMC10786891, “Massively parallel profiling of RNA-targeting CRISPR-Cas13d”.

T1: EsCas13d, nuclease-dead (Eubacterium siraeum, UniProt B0MS50, R295A;H300A;R849A;H854A)
T1 sequence: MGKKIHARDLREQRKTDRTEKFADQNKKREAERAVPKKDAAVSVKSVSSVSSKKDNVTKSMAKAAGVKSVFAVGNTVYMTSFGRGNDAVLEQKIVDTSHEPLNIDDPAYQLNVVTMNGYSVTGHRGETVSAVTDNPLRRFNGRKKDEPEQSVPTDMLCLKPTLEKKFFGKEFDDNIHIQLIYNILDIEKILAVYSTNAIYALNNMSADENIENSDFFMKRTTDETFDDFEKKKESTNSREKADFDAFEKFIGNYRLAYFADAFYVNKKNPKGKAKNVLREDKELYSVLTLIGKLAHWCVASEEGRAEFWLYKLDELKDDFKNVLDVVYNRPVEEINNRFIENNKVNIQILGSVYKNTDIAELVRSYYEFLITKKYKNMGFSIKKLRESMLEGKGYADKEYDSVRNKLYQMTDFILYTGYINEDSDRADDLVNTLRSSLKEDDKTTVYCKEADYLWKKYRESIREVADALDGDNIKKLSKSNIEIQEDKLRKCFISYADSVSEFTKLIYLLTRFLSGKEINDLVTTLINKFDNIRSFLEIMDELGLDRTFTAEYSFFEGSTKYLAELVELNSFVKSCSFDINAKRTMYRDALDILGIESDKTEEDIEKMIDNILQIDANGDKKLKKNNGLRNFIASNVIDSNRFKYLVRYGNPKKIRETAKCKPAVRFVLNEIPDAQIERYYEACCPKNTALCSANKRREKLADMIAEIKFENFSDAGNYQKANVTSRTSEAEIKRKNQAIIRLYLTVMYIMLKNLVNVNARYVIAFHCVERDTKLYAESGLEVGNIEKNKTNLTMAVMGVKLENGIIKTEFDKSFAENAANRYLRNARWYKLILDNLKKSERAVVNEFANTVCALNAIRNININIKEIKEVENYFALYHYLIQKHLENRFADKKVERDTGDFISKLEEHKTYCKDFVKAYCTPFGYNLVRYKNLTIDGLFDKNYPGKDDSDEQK

B1: target 2 MT 5'PFS GCU 3'PFS UAU (mixed)
RNA 1: CACCCGUGCAAAAUUGCAGGGGUCUAAAACCUUCUCCAAAUUGUUUCAUCCU
RNA 2: GGGAAUGGAUCCACAUCUACGAAUUCGCUAGGAUGAAACAAUUUGGAGAAGUAUAGAUCGGAAGAGCACACGU
B2: target 2 MT 5'PFS UCA 3'PFS CAU (mixed)
RNA 1: CACCCGUGCAAAAUUGCAGGGGUCUAAAACCUUCUCCAAAUUGUUUCAUCCU
RNA 2: GGGAAUGGAUCCACAUCUACGAAUUCUCAAGGAUGAAACAAUUUGGAGAAGCAUAGAUCGGAAGAGCACACGU
B3: target 2 MT 5'PFS GUC 3'PFS UAU (mixed)
RNA 1: CACCCGUGCAAAAUUGCAGGGGUCUAAAACCUUCUCCAAAUUGUUUCAUCCU
RNA 2: GGGAAUGGAUCCACAUCUACGAAUUCGUCAGGAUGAAACAAUUUGGAGAAGUAUAGAUCGGAAGAGCACACGU
B4: target 2 MT 5'PFS UGG 3'PFS AAC (mixed)
RNA 1: CACCCGUGCAAAAUUGCAGGGGUCUAAAACCUUCUCCAAAUUGUUUCAUCCU
RNA 2: GGGAAUGGAUCCACAUCUACGAAUUCUGGAGGAUGAAACAAUUUGGAGAAGAACAGAUCGGAAGAGCACACGU
B5: target 2 MT 5'PFS UAU 3'PFS GAU (mixed)
RNA 1: CACCCGUGCAAAAUUGCAGGGGUCUAAAACCUUCUCCAAAUUGUUUCAUCCU
RNA 2: GGGAAUGGAUCCACAUCUACGAAUUCUAUAGGAUGAAACAAUUUGGAGAAGGAUAGAUCGGAAGAGCACACGU
B6: target 2 MT 5'PFS UGG 3'PFS CAC (mixed)
RNA 1: CACCCGUGCAAAAUUGCAGGGGUCUAAAACCUUCUCCAAAUUGUUUCAUCCU
RNA 2: GGGAAUGGAUCCACAUCUACGAAUUCUGGAGGAUGAAACAAUUUGGAGAAGCACAGAUCGGAAGAGCACACGU
B7: target 2 MT 5'PFS UGU 3'PFS AUC (mixed)
RNA 1: CACCCGUGCAAAAUUGCAGGGGUCUAAAACCUUCUCCAAAUUGUUUCAUCCU
RNA 2: GGGAAUGGAUCCACAUCUACGAAUUCUGUAGGAUGAAACAAUUUGGAGAAGAUCAGAUCGGAAGAGCACACGU
B8: target 2 MT 5'PFS GUC 3'PFS UAG (mixed)
RNA 1: CACCCGUGCAAAAUUGCAGGGGUCUAAAACCUUCUCCAAAUUGUUUCAUCCU
RNA 2: GGGAAUGGAUCCACAUCUACGAAUUCGUCAGGAUGAAACAAUUUGGAGAAGUAGAGAUCGGAAGAGCACACGU
B9: target 2 MT 5'PFS ACA 3'PFS UCA (mixed)
RNA 1: CACCCGUGCAAAAUUGCAGGGGUCUAAAACCUUCUCCAAAUUGUUUCAUCCU
RNA 2: GGGAAUGGAUCCACAUCUACGAAUUCACAAGGAUGAAACAAUUUGGAGAAGUCAAGAUCGGAAGAGCACACGU
B10: target 2 MT 5'PFS UGG 3'PFS AGU (mixed)
RNA 1: CACCCGUGCAAAAUUGCAGGGGUCUAAAACCUUCUCCAAAUUGUUUCAUCCU
RNA 2: GGGAAUGGAUCCACAUCUACGAAUUCUGGAGGAUGAAACAAUUUGGAGAAGAGUAGAUCGGAAGAGCACACGU
B11: target 2 MT 5'PFS GUC 3'PFS UAA (mixed)
RNA 1: CACCCGUGCAAAAUUGCAGGGGUCUAAAACCUUCUCCAAAUUGUUUCAUCCU
RNA 2: GGGAAUGGAUCCACAUCUACGAAUUCGUCAGGAUGAAACAAUUUGGAGAAGUAAAGAUCGGAAGAGCACACGU
B12: target 2 MT 5'PFS CAU 3'PFS UUC (mixed)
RNA 1: CACCCGUGCAAAAUUGCAGGGGUCUAAAACCUUCUCCAAAUUGUUUCAUCCU
RNA 2: GGGAAUGGAUCCACAUCUACGAAUUCCAUAGGAUGAAACAAUUUGGAGAAGUUCAGAUCGGAAGAGCACACGU
B13: target 2 MT 5'PFS UAU 3'PFS GAG (mixed)
RNA 1: CACCCGUGCAAAAUUGCAGGGGUCUAAAACCUUCUCCAAAUUGUUUCAUCCU
RNA 2: GGGAAUGGAUCCACAUCUACGAAUUCUAUAGGAUGAAACAAUUUGGAGAAGGAGAGAUCGGAAGAGCACACGU
B14: target 2 MT 5'PFS ACC 3'PFS CAC (mixed)
RNA 1: CACCCGUGCAAAAUUGCAGGGGUCUAAAACCUUCUCCAAAUUGUUUCAUCCU
RNA 2: GGGAAUGGAUCCACAUCUACGAAUUCACCAGGAUGAAACAAUUUGGAGAAGCACAGAUCGGAAGAGCACACGU
B15: target 2 MT 5'PFS GUC 3'PFS UAC (mixed)
RNA 1: CACCCGUGCAAAAUUGCAGGGGUCUAAAACCUUCUCCAAAUUGUUUCAUCCU
RNA 2: GGGAAUGGAUCCACAUCUACGAAUUCGUCAGGAUGAAACAAUUUGGAGAAGUACAGAUCGGAAGAGCACACGU
B16: target 2 MT 5'PFS UGG 3'PFS AGC (mixed)
RNA 1: CACCCGUGCAAAAUUGCAGGGGUCUAAAACCUUCUCCAAAUUGUUUCAUCCU
RNA 2: GGGAAUGGAUCCACAUCUACGAAUUCUGGAGGAUGAAACAAUUUGGAGAAGAGCAGAUCGGAAGAGCACACGU
B17: target 2 MT 5'PFS UGU 3'PFS AUA (mixed)
RNA 1: CACCCGUGCAAAAUUGCAGGGGUCUAAAACCUUCUCCAAAUUGUUUCAUCCU
RNA 2: GGGAAUGGAUCCACAUCUACGAAUUCUGUAGGAUGAAACAAUUUGGAGAAGAUAAGAUCGGAAGAGCACACGU
B18: target 2 MT 5'PFS CAU 3'PFS UUG (mixed)
RNA 1: CACCCGUGCAAAAUUGCAGGGGUCUAAAACCUUCUCCAAAUUGUUUCAUCCU
RNA 2: GGGAAUGGAUCCACAUCUACGAAUUCCAUAGGAUGAAACAAUUUGGAGAAGUUGAGAUCGGAAGAGCACACGU
B19: target 2 MT 5'PFS CAU 3'PFS UUA (mixed)
RNA 1: CACCCGUGCAAAAUUGCAGGGGUCUAAAACCUUCUCCAAAUUGUUUCAUCCU
RNA 2: GGGAAUGGAUCCACAUCUACGAAUUCCAUAGGAUGAAACAAUUUGGAGAAGUUAAGAUCGGAAGAGCACACGU
B20: target 2 MT 5'PFS CAU 3'PFS UUU (mixed)
RNA 1: CACCCGUGCAAAAUUGCAGGGGUCUAAAACCUUCUCCAAAUUGUUUCAUCCU
RNA 2: GGGAAUGGAUCCACAUCUACGAAUUCCAUAGGAUGAAACAAUUUGGAGAAGUUUAGAUCGGAAGAGCACACGU
B21: target 1 insC 3' of 20,insU 3' of 1 (mixed)
RNA 1: CACCCGUGCAAAAAUGCAGGGGUCUAAAACUGAGCGGAUAACCUCUCUAUGG
RNA 2: GGGAAUGGAUCCACAUCUACGAAUUCGUACCACUAGAGAGGUUAUCCGCUCAUCCGAGAUCGGAAGAGCACACGU
B22: target 1 A9G,C22A (mixed)
RNA 1: CACCCGUGCAAAAAUGCAGGGGUCUAAAACUGAGCGGAUAACCUCUCUAUGG
RNA 2: GGGAAUGGAUCCACAUCUACGAAUUCGUAACAUAGAGAGGUUGUCCGCUCACCGAGAUCGGAAGAGCACACGU
B23: target 1 A9G,G15U (mixed)
RNA 1: CACCCGUGCAAAAAUGCAGGGGUCUAAAACUGAGCGGAUAACCUCUCUAUGG
RNA 2: GGGAAUGGAUCCACAUCUACGAAUUCGUACCAUAGAUAGGUUGUCCGCUCACCGAGAUCGGAAGAGCACACGU

One may read the Kd as the concentration at which binding is half-saturated.

In the data set the target is T1, EsCas13d, nuclease-dead. Nature of the data set: crRNA (strand 1, pre-loaded); Mg2+; 40 mM Tris-HCl pH 7.5, 150 mM NaCl, 6 mM MgCl2, 1 mM DTT, 0.1% Tween-20, 0.2 mg/ml BSA; 25 C; 10 min per concentration, then washed. To be noted: tags: His6-TwinStrep-SUMO cleaved; N-terminal SNAP kept (SNAP-Surface 488); label: 3' end held by stalled T7 RNA polymerase.
Take B1: the Kd was found to be 11 ± 4 nM. In the case of B2, binding was characterised by a dissociation constant (Kd) of 4.8 ± 1.1 nM. B3 gave a dissociation constant Kd of 18 ± 5 nM.

Turning to B4, the Kd worked out at 7.1 ± 0.6 nM. Take B5: the Kd is about 44 nM.

In the case of B6, the Kd was 15.3 ± 2.5 nM. As to B7, the Kd came out at 16.6 ± 2.6 nM. Turning to B8, binding was put at a Kd of 14 ± 2 nM. The value for B9 was 8.7 ± 3.2 nM. For B10, the Kd was found to be 8 ± 0.8 nM. Consider B11, for which the Kd was determined as 9.3 ± 1.4 nM. The value for B12 was 9.1 ± 1.6 nM. Turning to B13, the Kd is about 50 nM.

For B14, binding was characterised by a dissociation constant (Kd) of 7.4 ± 1.6 nM.

For B15, binding was put at a Kd of 15.3 ± 2.4 nM. The value for B16 was 6 ± 0.9 nM; that for B17 was 9.9 ± 1.6 nM. For B18, binding was characterised by a dissociation constant (Kd) of 4.5 ± 0.4 nM. Molecule B19 displayed a dissociation constant Kd of 5.2 ± 0.9 nM. The value for B20 was 6.2 ± 0.7 nM. B21 displayed a dissociation constant (Kd) of 7.34 ± 0.35 nM. On to B22, for which the Kd is 21.9 ± 1.3 nM.

On to B23, for which the equilibrium dissociation constant (Kd) was found to be 17.3 ± 1.4 nM.
